Laboratory results: the Human Domainome abundance scans (Beltran et al. 2025)
± gives the uncertainty stated by the source.

Assay: abundance fitness (aPCA) (normalised: wild type 0, dead -1); higher = more abundant; growth selection in yeast, the domain comes from the species named
Settings: Homo sapiens

Question: With “BAG family molecular chaperone regulator 3 T47C, O95817” as the substance, how does the abundance fitness read?
Answer: -0.227 ± 0.27

Question: With “BAG family molecular chaperone regulator 3 S44E, O95817” as the substance, how does the abundance fitness read?
Answer: -0.489 ± 0.17

Question: For “SAFB-like transcription modulator R26E, Q9NWH9”, which abundance fitness is on record?
Answer: -0.191 ± 0.11

Question: With “BAG family molecular chaperone regulator 3 T46L, O95817” as the substance, how does the abundance fitness read?
Answer: -0.53 ± 0.12

Question: With “SAFB-like transcription modulator L52M, Q9NWH9” as the substance, how does the abundance fitness read?
Answer: -0.456 ± 0.1

Question: Which abundance fitness does the source give for “BAG family molecular chaperone regulator 3 S14Y, O95817” here?
Answer: -0.113 ± 0.15

Question: Which abundance fitness does the source give for “SAFB-like transcription modulator K31M, Q9NWH9” here?
Answer: -0.241 ± 0.068

Question: With “SAFB-like transcription modulator D40A, Q9NWH9” as the substance, how does the abundance fitness read?
Answer: -0.2 ± 0.046

Question: For “BAG family molecular chaperone regulator 3 R45Y, O95817”, which abundance fitness is on record?
Answer: -0.229 ± 0.22

Question: For “BAG family molecular chaperone regulator 3 N16L, O95817”, which abundance fitness is on record?
Answer: 0.33 ± 0.1

Question: With “SAFB-like transcription modulator K31Q, Q9NWH9” as the substance, how does the abundance fitness read?
Answer: -0.069 ± 0.075

Question: Which abundance fitness does the source give for “SAFB-like transcription modulator L30K, Q9NWH9” here?
Answer: -1.33 ± 0.27

Question: For “BAG family molecular chaperone regulator 3 P23M, O95817”, which abundance fitness is on record?
Answer: -0.772 ± 0.34

Question: With “SAFB-like transcription modulator G19I, Q9NWH9” as the substance, how does the abundance fitness read?
Answer: 0.503 ± 0.23

Question: Which abundance fitness does the source give for “SAFB-like transcription modulator L48Y, Q9NWH9” here?
Answer: -0.788 ± 0.043

Question: For “SAFB-like transcription modulator I41H, Q9NWH9”, which abundance fitness is on record?
Answer: 0.157 ± 0.093

Question: With “BAG family molecular chaperone regulator 3 D18I, O95817” as the substance, how does the abundance fitness read?
Answer: -0.205 ± 0.27

Question: For “BAG family molecular chaperone regulator 3 N43Y, O95817”, which abundance fitness is on record?
Answer: -0.366 ± 0.4

Question: For “BAG family molecular chaperone regulator 3 T46A, O95817”, which abundance fitness is on record?
Answer: -0.687 ± 0.32

Question: For “BAG family molecular chaperone regulator 3 L22I, O95817”, which abundance fitness is on record?
Answer: -0.271 ± 0.15

Question: For “SAFB-like transcription modulator L39P, Q9NWH9”, which abundance fitness is on record?
Answer: -0.81 ± 0.067

Question: For “SAFB-like transcription modulator K35D, Q9NWH9”, which abundance fitness is on record?
Answer: -0.046 ± 0.097

Question: With “SAFB-like transcription modulator N65F, Q9NWH9” as the substance, how does the abundance fitness read?
Answer: -0.101 ± 0.065

Question: With “BAG family molecular chaperone regulator 3 D20R, O95817” as the substance, how does the abundance fitness read?
Answer: -0.228 ± 0.085

Question: Which abundance fitness does the source give for “BAG family molecular chaperone regulator 3 E57C, O95817” here?
Answer: -0.564 ± 0.15

Question: Which abundance fitness does the source give for “BAG family molecular chaperone regulator 3 F38Q, O95817” here?
Answer: 0.571 ± 0.22

Question: With “SAFB-like transcription modulator R51F, Q9NWH9” as the substance, how does the abundance fitness read?
Answer: -1.21 ± 0.38

Question: With “SAFB-like transcription modulator V27I, Q9NWH9” as the substance, how does the abundance fitness read?
Answer: -0.011 ± 0.054

Question: For “SAFB-like transcription modulator I22D, Q9NWH9”, which abundance fitness is on record?
Answer: -0.464 ± 0.087

Question: With “SAFB-like transcription modulator I56M, Q9NWH9” as the substance, how does the abundance fitness read?
Answer: -0.217 ± 0.05

Question: Which abundance fitness does the source give for “SAFB-like transcription modulator S50F, Q9NWH9” here?
Answer: -0.253 ± 0.052

Question: For “SAFB-like transcription modulator R37S, Q9NWH9”, which abundance fitness is on record?
Answer: -0.845 ± 0.057

Question: With “BAG family molecular chaperone regulator 3 R19D, O95817” as the substance, how does the abundance fitness read?
Answer: -0.499 ± 0.31

Question: Which abundance fitness does the source give for “SAFB-like transcription modulator E33T, Q9NWH9” here?
Answer: -1.08 ± 0.17

Question: For “BAG family molecular chaperone regulator 3 T47E, O95817”, which abundance fitness is on record?
Answer: -0.573 ± 0.15

Question: With “SAFB-like transcription modulator L30N, Q9NWH9” as the substance, how does the abundance fitness read?
Answer: -0.267 ± 0.19

Question: For “BAG family molecular chaperone regulator 3 V40C, O95817”, which abundance fitness is on record?
Answer: -0.269 ± 0.13

Question: Which abundance fitness does the source give for “BAG family molecular chaperone regulator 3 G17Y, O95817” here?
Answer: 0.213 ± 0.22

Question: With “BAG family molecular chaperone regulator 3 F39E, O95817” as the substance, how does the abundance fitness read?
Answer: -0.154 ± 0.085

Question: With “BAG family molecular chaperone regulator 3 P23Y, O95817” as the substance, how does the abundance fitness read?
Answer: -0.54 ± 0.29

Question: With “SAFB-like transcription modulator D29S, Q9NWH9” as the substance, how does the abundance fitness read?
Answer: -0.755 ± 0.19

Question: With “BAG family molecular chaperone regulator 3 P32G, O95817” as the substance, how does the abundance fitness read?
Answer: 0.335 ± 0.076

Question: Which abundance fitness does the source give for “BAG family molecular chaperone regulator 3 P55M, O95817” here?
Answer: -0.356 ± 0.2

Question: With “SAFB-like transcription modulator G43C, Q9NWH9” as the substance, how does the abundance fitness read?
Answer: -0.464 ± 0.19

Question: Which abundance fitness does the source give for “BAG family molecular chaperone regulator 3 S14N, O95817” here?
Answer: -0.156 ± 0.17

Question: Which abundance fitness does the source give for “SAFB-like transcription modulator K35G, Q9NWH9” here?
Answer: 0.023 ± 0.051

Question: For “SAFB-like transcription modulator D40C, Q9NWH9”, which abundance fitness is on record?
Answer: -0.594 ± 0.12

Question: Which abundance fitness does the source give for “SAFB-like transcription modulator K53H, Q9NWH9” here?
Answer: -0.039 ± 0.14

Question: For “SAFB-like transcription modulator L52C, Q9NWH9”, which abundance fitness is on record?
Answer: -0.827 ± 0.12

Question: With “SAFB-like transcription modulator G60Q, Q9NWH9” as the substance, how does the abundance fitness read?
Answer: -0.181 ± 0.042

Question: Which abundance fitness does the source give for “BAG family molecular chaperone regulator 3 Q33S, O95817” here?
Answer: -0.265 ± 0.14

Question: For “SAFB-like transcription modulator K31C, Q9NWH9”, which abundance fitness is on record?
Answer: -0.223 ± 0.06

Question: With “BAG family molecular chaperone regulator 3 T34I, O95817” as the substance, how does the abundance fitness read?
Answer: 0.028 ± 0.2

Question: For “BAG family molecular chaperone regulator 3 G25R, O95817”, which abundance fitness is on record?
Answer: -0.432 ± 0.14

Question: Which abundance fitness does the source give for “BAG family molecular chaperone regulator 3 I30L, O95817” here?
Answer: 0.249 ± 0.091

Question: Which abundance fitness does the source give for “BAG family molecular chaperone regulator 3 D18S, O95817” here?
Answer: -0.047 ± 0.13

Question: Which abundance fitness does the source give for “SAFB-like transcription modulator N38L, Q9NWH9” here?
Answer: -0.247 ± 0.05

Question: Which abundance fitness does the source give for “BAG family molecular chaperone regulator 3 F38I, O95817” here?
Answer: -0.692 ± 0.34

Question: Which abundance fitness does the source give for “SAFB-like transcription modulator K20N, Q9NWH9” here?
Answer: -0.333 ± 0.17

Question: Which abundance fitness does the source give for “SAFB-like transcription modulator G61Y, Q9NWH9” here?
Answer: -0.259 ± 0.082

Question: With “SAFB-like transcription modulator E58N, Q9NWH9” as the substance, how does the abundance fitness read?
Answer: -0.068 ± 0.077

Question: For “SAFB-like transcription modulator D64P, Q9NWH9”, which abundance fitness is on record?
Answer: -0.519 ± 0.039

Question: For “SAFB-like transcription modulator E67C, Q9NWH9”, which abundance fitness is on record?
Answer: -0.252 ± 0.087

Question: Which abundance fitness does the source give for “BAG family molecular chaperone regulator 3 R53L, O95817” here?
Answer: -0.732 ± 0.09

Question: With “SAFB-like transcription modulator I41A, Q9NWH9” as the substance, how does the abundance fitness read?
Answer: 0.075 ± 0.075

Question: With “BAG family molecular chaperone regulator 3 N16V, O95817” as the substance, how does the abundance fitness read?
Answer: 0.368 ± 0.1

Question: Which abundance fitness does the source give for “BAG family molecular chaperone regulator 3 N50I, O95817” here?
Answer: 0.656 ± 0.23

Question: For “SAFB-like transcription modulator I41G, Q9NWH9”, which abundance fitness is on record?
Answer: -0.158 ± 0.064

Question: With “BAG family molecular chaperone regulator 3 E57W, O95817” as the substance, how does the abundance fitness read?
Answer: -0.423 ± 0.29

Question: With “SAFB-like transcription modulator T42D, Q9NWH9” as the substance, how does the abundance fitness read?
Answer: 0.061 ± 0.092
